These results are taken from patent US20260217793A1 (Chugai, published 2026).

Test [1] has as its target FcγRIIIa type V extracellular domain with C-terminal His tag (human, UniProt P08637 17-208). Nature of the test: SPR.
Test [2] addresses T1, FcγRIIa type H extracellular domain with C-terminal His tag (human, UniProt P12318 34-217).
T1 sequence (looked up): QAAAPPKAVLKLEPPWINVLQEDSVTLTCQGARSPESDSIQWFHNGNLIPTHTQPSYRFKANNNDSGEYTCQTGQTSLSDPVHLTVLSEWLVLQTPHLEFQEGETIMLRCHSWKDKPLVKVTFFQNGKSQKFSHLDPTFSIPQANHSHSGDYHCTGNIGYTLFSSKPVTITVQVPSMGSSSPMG
Nature of the test: SPR. A general note: SPR reads the build-up and loss of mass on a sensor chip optically.

In test [3] the target is T2, FcγRIIb extracellular domain with C-terminal His tag (human, UniProt P31994 43-217).
T2 sequence (looked up): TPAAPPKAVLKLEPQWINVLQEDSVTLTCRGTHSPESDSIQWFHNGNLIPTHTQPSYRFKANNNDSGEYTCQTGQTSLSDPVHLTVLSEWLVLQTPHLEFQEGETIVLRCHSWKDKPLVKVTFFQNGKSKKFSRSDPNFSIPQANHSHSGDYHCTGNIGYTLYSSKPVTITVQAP
The experiment in a line: ratio of SPR KDs, FcγRIIaR over FcγRIIb, same variant.

Test [4] concerns the target T2, FcγRIIb extracellular domain with …. The experiment in a line: ratio of SPR KDs, FcγRIIaH over FcγRIIb, same variant.
For test [5] the target is unchanged. Nature of the test: ratio of SPR KDs vs IL6R-B3/IL6R-L.
Test [6] deals with T3, FcγRIIa type R extracellular domain with C-terminal His tag (human, UniProt P12318 34-217).
T3 sequence (looked up): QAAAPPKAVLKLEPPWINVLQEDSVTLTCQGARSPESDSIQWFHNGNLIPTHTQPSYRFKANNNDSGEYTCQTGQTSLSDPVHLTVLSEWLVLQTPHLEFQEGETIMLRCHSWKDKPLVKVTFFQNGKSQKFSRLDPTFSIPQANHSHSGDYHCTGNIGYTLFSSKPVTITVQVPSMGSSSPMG
Nature of the test: ratio of SPR KDs vs IL6R-B3/IL6R-L.

The target of test [7] is T4, human FcγRIIa type H (His131) extracellular domain with C-terminal His tag (human, UniProt P12318 34-217).
T4 sequence (looked up): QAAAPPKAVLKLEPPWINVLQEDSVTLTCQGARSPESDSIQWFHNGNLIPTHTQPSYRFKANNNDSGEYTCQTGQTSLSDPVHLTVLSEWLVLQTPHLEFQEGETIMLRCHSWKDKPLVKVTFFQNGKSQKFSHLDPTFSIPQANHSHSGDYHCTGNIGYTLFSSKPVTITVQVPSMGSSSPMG
The experiment in a line: SPR.

The target of test [8] is human FcγRIIIa type V (Val158) extracellular domain with C-terminal His tag (human, UniProt P08637 17-208). Nature of the test: SPR.
Chain of human FcγRIIIa type V (Val158) extracellular domain with C-terminal His tag (P08637 17-208 F176V): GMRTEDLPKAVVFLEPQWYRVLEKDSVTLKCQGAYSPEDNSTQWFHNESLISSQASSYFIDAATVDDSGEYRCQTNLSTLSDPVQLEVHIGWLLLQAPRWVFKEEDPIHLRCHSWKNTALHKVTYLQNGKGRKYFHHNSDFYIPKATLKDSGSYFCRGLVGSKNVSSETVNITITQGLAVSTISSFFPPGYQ

Chain of FcγRIIIa type V extracellular domain with C-terminal His tag (P08637 17-208 F176V): as above

B1: IL6R-BP230/IL6R-L (antibody, human IgG1, kappa)
heavy: QVQLQESGPGLVKPSETLSLTCAVSGHSISHDHAWSWVRQPPGEGLEWIGFISYSGITNYNPSLQGRVTISRDNSKNTLYLQMNSLRAEDTAVYYCARSLARTTAMDYWGEGTLVTVSSASTKGPSVFPLAPSSKSTSGGTAALGCLVKDYFPEPVTVSWNSGALTSGVHTFPAVLQSSGLYSLSSVVTVPSSSLGTQTYICNVNHKPSNTKVDKKVEPKSCDKTHTCPPCPAPDLLGDDSVFLFPPKPKDTLMISRTPEVTCVVVDVSDEDGEVKFNWYVDGVEVHNAKTKPREEQDNSTYRVVSVLTVLHQDWLNGKEYKCKVSNKALPRPIEKTISKAKGQPREPQVYTLPPSRDELTKNQVSLTCLVKGFYPSDIAVEWESNGQPENNYKTTPPVLDSDGSFFLYSKLTVDKSRWQQGNVFSCSVMHEALHNHYTQESLSLSP
light: not shown
The term Kd denotes the free concentration of one partner at which half of the binding sites on the other are occupied at equilibrium, for simple one-to-one binding. Low readings indicate higher affinity, high ones lower affinity. With B1, the Kd was found to be 39 µM in test [1] and 9.7 µM in test [2].

B2: IL6R-BP547/IL6R-L (antibody, human IgG1, kappa)
heavy: QVQLQESGPGLVKPSETLSLTCAVSGHSISHDHAWSWVRQPPGEGLEWIGFISYSGITNYNPSLQGRVTISRDNSKNTLYLQMNSLRAEDTAVYYCARSLARTTAMDYWGEGTLVTVSSASTKGPSVFPLAPSSKSTSGGTAALGCLVKDYFPEPVTVSWNSGALTSGVHTFPAVLQSSGLYSLSSVVTVPSSSLGTQTYICNVNHKPSNTKVDKKVEPKSCDKTHTCPPCPAPDLLGDDSVFLFPPKPKDTLMISRTPEVTCVVVDVSDEDGEVKFNWYVDGVEVHNAKTKPREEQDNSTYRVVSVLTVLHQDWLNGKEYKCKVSNKALPRPIEKTISKAKGQPREPQVYTLPPSRDELTKNQVSLTCLVKGFYPSDIAVEWESNGQPENNYKTTPPVLDSDGSFFLYSRLTVDKSRWQQGNVFSCSVMHEALHNHYTQESLSLSP
light: not shown
B2: the Kd in test [1] was 35 µM; in test [2] it was 7.5 µM.

B3: IL6R-BP481/IL6R-L (antibody, human IgG1, kappa)
heavy: QVQLQESGPGLVKPSETLSLTCAVSGHSISHDHAWSWVRQPPGEGLEWIGFISYSGITNYNPSLQGRVTISRDNSKNTLYLQMNSLRAEDTAVYYCARSLARTTAMDYWGEGTLVTVSSASTKGPSVFPLAPSSKSTSGGTAALGCLVKDYFPEPVTVSWNSGALTSGVHTFPAVLQSSGLYSLSSVVTVPSSSLGTQTYICNVNHKPSNTKVDKKVEPKSCDKTHTCPPCPAPDLLGDDSVFLFPPKPKDTLMISRTPEVTCVVIDVAEEDGEVKFNWYVDGVEVHNAKTKPREEQYNSTYRVVSVLTVLHQDWLNGKEYKCKVSNKALPAPIEKTISKAKGQPREPQVYTLPPSRDELTKNQVSLTCLVKGFYPSDIAVEWESNGQPENNYKTTPPVLDSDGSFFLYSKLTVDKSRWQQGNVFSCSVMHEALHNHYTQESLSLSP
light: not shown
Turning to B3, in test [3], the “KD (IIaR)/KD (IIb)” value turned out to be 20.5. The “KD (IIaH)/KD (IIb)” value in test [4] was found to be 350. The “KD (IIb) of parent polypeptide/KD (IIb) of altered polypeptide” value (“KD (IIb) of parent polypeptide/KD” below) in test [5] amounted to 160. Also, in test [6], the “KD (IIaR) of parent polypeptide/KD (IIaR) of altered polypeptide” value (shortened to “KD (IIaR) of parent polypeptide/KD”) amounted to 2.8.

B4: IL6R-BP557/IL6R-L (antibody, human IgG1, kappa)
heavy: QVQLQESGPGLVKPSETLSLTCAVSGHSISHDHAWSWVRQPPGEGLEWIGFISYSGITNYNPSLQGRVTISRDNSKNTLYLQMNSLRAEDTAVYYCARSLARTTAMDYWGEGTLVTVSSASTKGPSVFPLAPSSKSTSGGTAALGCLVKDYFPEPVTVSWNSGALTSGVHTFPAVLQSSGLYSLSSVVTVPSSSLGTQTYICNVNHKPSNTKVDKKVEPKSCDKTHTCPPCPAPELLGDDSVFLFPPKPKDTLMISRTPEVTCVVVDVGDEDGEVKFNWYVDGVEVHNAKTKPREEQDNSTYRVVSVLTVLHQDWLNGKEYKCKVSNKALPRPIEKTISKAKGQPREPQVYTLPPSRDELTKNQVSLTCLVKGFYPSDIAVEWESNGQPENNYKTTPPVLDSDGSFFLYSKLTVDKSRWQQGNVFSCSVMHEALHNHYTQESLSLSP
light: not shown
For B4, the equilibrium dissociation constant (Kd) in test [7] came to 15 µM; in test [8] it was 29 µM.

B5: IL6R-BP484/IL6R-L (antibody, human IgG1, kappa)
heavy: QVQLQESGPGLVKPSETLSLTCAVSGHSISHDHAWSWVRQPPGEGLEWIGFISYSGITNYNPSLQGRVTISRDNSKNTLYLQMNSLRAEDTAVYYCARSLARTTAMDYWGEGTLVTVSSASTKGPSVFPLAPSSKSTSGGTAALGCLVKDYFPEPVTVSWNSGALTSGVHTFPAVLQSSGLYSLSSVVTVPSSSLGTQTYICNVNHKPSNTKVDKKVEPKSCDKTHTCPPCPAPDLLGDDSVFLFPPKPKDTLMISRTPEVTCVVVDVAEDDGEVKFNWYVDGVEVHNAKTKPREEQYNSTYRVVSVLTVLHQDWLNGKEYKCKVSNKALPAPIEKTISKAKGQPREPQVYTLPPSRDELTKNQVSLTCLVKGFYPSDIAVEWESNGQPENNYKTTPPVLDSDGSFFLYSKLTVDKSRWQQGNVFSCSVMHEALHNHYTQESLSLSP
light: not shown
As for B5, the “KD (IIaR)/KD (IIb)” value in test [3] turned out to be 17.1. Moreover, the “KD (IIaH)/KD (IIb)” value in test [4] was 241. In addition, the “KD (IIb) of parent polypeptide/KD” value in test [5] came to 67.8. Besides, in test [6], the “KD (IIaR) of parent polypeptide/KD” value stood at 1.4.

B6: IL6R-BP545/IL6R-L (antibody, human IgG1, kappa)
heavy: QVQLQESGPGLVKPSETLSLTCAVSGHSISHDHAWSWVRQPPGEGLEWIGFISYSGITNYNPSLQGRVTISRDNSKNTLYLQMNSLRAEDTAVYYCARSLARTTAMDYWGEGTLVTVSSASTKGPSVFPLAPSSKSTSGGTAALGCLVKDYFPEPVTVSWNSGALTSGVHTFPAVLQSSGLYSLSSVVTVPSSSLGTQTYICNVNHKPSNTKVDKKVEPKSCDKTHTCPPCPAPDLLGDDSVFLFPPKPKDTLMISRTPEVTCVVVDVSDEDGEVKFNWYVDGVEVHNAKTKPREEQDNSTYRVVSVLTVLHQDWLNGKEYKCKVSNKALPRPIEKTISKAKGQPREPQVYTLPPSREELTKNQVSLTCLVKGFYPSDIAVEWESNGQPENNYKTTPPVLDSDGSFFLYSKLTVDKSRWQQGNVFSCSVMHEALHNHYTQESLSLSP
light: not shown
On to B6, for which the Kd in test [1] stood at 45 µM; in test [2], 9.1 µM.

B7: IL6R-BP542/IL6R-L (antibody, human IgG1, kappa)
heavy: QVQLQESGPGLVKPSETLSLTCAVSGHSISHDHAWSWVRQPPGEGLEWIGFISYSGITNYNPSLQGRVTISRDNSKNTLYLQMNSLRAEDTAVYYCARSLARTTAMDYWGEGTLVTVSSASTKGPSVFPLAPSSKSTSGGTAALGCLVKDYFPEPVTVSWNSGALTSGVHTFPAVLQSSGLYSLSSVVTVPSSSLGTQTYICNVNHKPSNTKVDKKVEPKSCDKTHTCPPCPAPDLLGDDSVFLFPPKPKDTLMISRTPEVTCVVVDVSDEDGEVKFNWYVDGVEVHNAKTKPREEQFNSTYRVVSVLTVLHQDWLNGKEYKCKVSNKALPRPIEKTISKAKGQPREPQVYTLPPSRDELTKNQVSLTCLVKGFYPSDIAVEWESNGQPENNYKTTPPVLDSDGSFFLYSKLTVDKSRWQQGNVFSCSVMHEALHNHYTQESLSLSP
light: not shown
Turning to B7, the Kd in test [1] stood at 43 µM; in test [2], 9.7 µM.

B8: IL6R-BP499/IL6R-L (antibody, human IgG1, kappa)
heavy: QVQLQESGPGLVKPSETLSLTCAVSGHSISHDHAWSWVRQPPGEGLEWIGFISYSGITNYNPSLQGRVTISRDNSKNTLYLQMNSLRAEDTAVYYCARSLARTTAMDYWGEGTLVTVSSASTKGPSVFPLAPSSKSTSGGTAALGCLVKDYFPEPVTVSWNSGALTSGVHTFPAVLQSSGLYSLSSVVTVPSSSLGTQTYICNVNHKPSNTKVDKKVEPKSCDKTHTCPPCPAPDLLGDDSVFLFPPKPKDTLMISRTPEVTCVVIDVAEEDGEVKFNWYVDGVEVHNAKTKPREEQDNSTYRVVSVLTVLHQDWLNGKEYKCKVSNKALPRPIEKTISKAKGQPREPQVYTLPPSRDELTKNQVSLTCLVKGFYPSDIAVEWESNGQPENNYKTTPLVLDSDGSFFLYSKLTVDKSRWQQGNVFSCSVMHEALHNHYTQESLSLSP
light: not shown
As to B8, the “KD (IIaR)/KD (IIb)” value in test [3] turned out to be 33.8. In addition, the “KD (IIaH)/KD (IIb)” value in test [4] came to 685. Further, the “KD (IIb) of parent polypeptide/KD” value in test [5] was 2120. Besides, in test [6], the “KD (IIaR) of parent polypeptide/KD” value turned out to be 22.3.
